Measurements as given in IntAct's records for PubMed 16908849.

B1: Tumor protein 63 (Homo sapiens), Q9H3D4 (parent)
chain: MNFETSRCATLQYCPDPYIQRFVETPAHFSWKESYYRSTMSQSTQTNEFLSPEVFQHIWDFLEQPICSVQPIDLNFVDEPSEDGATNKIEISMDCIRMQDSDLSDPMWPQYTNLGLLNSMDQQIQNGSSSTSPYNTDHAQNSVTAPSPYAQPSSTFDALSPSPAIPSNTDYPGPHSFDVSFQQSSTAKSATWTYSTELKKLYCQIAKTCPIQIKVMTPPPQGAVIRAMPVYKKAEHVTEVVKRCPNHELSREFNEGQIAPPSHLIRVEGNSHAQYVEDPITGRQSVLVPYEPPQVGTEFTTVLYNFMCNSSCVGGMNRRPILIIVTLETRDGQVLGRRCFEARICACPGRDRKADEDSIRKQQVSDSTKNGDGTKRPFRQNTHGIQMTSIKKRRSPDDELLYLPVRGRETYEMLLKIKESLELMQYLPQHTIETYRQQQQQQHQHLLQKQTSIQSPSSYGNSSPPLNKMNSMNKLPSVSQLINPQQRNALTPTTIPDGMGANIPMMGTHMPMAGDMNGLSPTQALPPPLSMPSTSHCTPPPPYPTDCSIVSFLARLGCSSCLDYFTTQGLTTIYQIEHYSMDDLASLKIPEQFRHAIWKGILDHRQLHEFSSPSHLLRTPSSASTVSVGSSETRGERVIDAVRFTLRQTISFPPRDEWNDFNFDMDARRNKQQRIKEEGE

Variants of: B1
Conditions: with itch_human ITCH

effect of a mutation on the interaction	Variant
disrupting interaction strength	Y543F
